In patent US20220017591A1 (AstraZeneca / MedImmune, published 2022):

B1: RELAX0063 (Fc fusion)
chain 1: DKTHTCPPCPAPEFEGGPSVFLFPPKPKDTLMISRTPEVTCVVVDVSHEDPEVKFNWYVDGVEVHNAKTKPREEQYNSTYRVVSVLTVLHQDWLNGKEYKCKVSNKALPASIEKTISKAKGQPREPQVYTLPPCREEMTKNQVSLWCLVKGFYPSDIAVEWESNGQPENNYKTTPPVLDSDGSFFLYSKLTVDKSRWQQGNVFSCSVMHEALHNHYTQKSLSLSPGGGGGSGGGGSGGGGSGGGGGSQLYSALANKCCHVGCTKRSLARAC
chain 2: DKTHTCPPCPAPEFEGGPSVFLFPPKPKDTLMISRTPEVTCVVVDVSHEDPEVKFNWYVDGVEVHNAKTKPREEQYNSTYRVVSVLTVLHQDWLNGKEYKCKVSNKALPASIEKTISKAKGQPREPQVCTLPPSREEMTKNQVSLSCAVKGFYPSDIAVEWESNGQPENNYKTTPPVLDSDGSFFLVSKLTVDKSRWQQGNVFSCSVMHEALHNHYTQKSLSLSPGGGGGSGGGGSGGGGSGGGGGSSWMEEVIKLCGRELVRAQIAICGMSTWS
B2: RELAX0070 (Fc fusion)
chain 1: DKTHTCPPCPAPEFEGGPSVFLFPPKPKDTLMISRTPEVTCVVVDVSHEDPEVKFNWYVDGVEVHNAKTKPREEQYNSTYRVVSVLTVLHQDWLNGKEYKCKVSNKALPASIEKTISKAKGQPREPQVYTLPPCREEMTKNQVSLWCLVKGFYPSDIAVEWESNGQPENNYKTTPPVLDSDGSFFLYSKLTVDKSRWQQGNVFSCSVMHEALHNHYTQKSLSLSPGGGGGSGGGGSGGGGSGGGGGSQLYSALANKCCHVGCTKRSLAIFC
chain 2: DKTHTCPPCPAPEFEGGPSVFLFPPKPKDTLMISRTPEVTCVVVDVSHEDPEVKFNWYVDGVEVHNAKTKPREEQYNSTYRVVSVLTVLHQDWLNGKEYKCKVSNKALPASIEKTISKAKGQPREPQVCTLPPSREEMTKNQVSLSCAVKGFYPSDIAVEWESNGQPENNYKTTPPVLDSDGSFFLVSKLTVDKSRWQQGNVFSCSVMHEALHNHYTQKSLSLSPGGGGGSGGGGSGGGGSGGGGGSSWMEEVIKLCGRELVRAQIAICGMSTWS
B3: RELAX0072 (Fc fusion)
chain 1: DKTHTCPPCPAPEFEGGPSVFLFPPKPKDTLMISRTPEVTCVVVDVSHEDPEVKFNWYVDGVEVHNAKTKPREEQYNSTYRVVSVLTVLHQDWLNGKEYKCKVSNKALPASIEKTISKAKGQPREPQVYTLPPCREEMTKNQVSLWCLVKGFYPSDIAVEWESNGQPENNYKTTPPVLDSDGSFFLYSKLTVDKSRWQQGNVFSCSVMHEALHNHYTQKSLSLSPGGGGGSGGGGSGGGGSGGGGGSQLYSALANKCCHVGCTKRSLAAFC
chain 2: DKTHTCPPCPAPEFEGGPSVFLFPPKPKDTLMISRTPEVTCVVVDVSHEDPEVKFNWYVDGVEVHNAKTKPREEQYNSTYRVVSVLTVLHQDWLNGKEYKCKVSNKALPASIEKTISKAKGQPREPQVCTLPPSREEMTKNQVSLSCAVKGFYPSDIAVEWESNGQPENNYKTTPPVLDSDGSFFLVSKLTVDKSRWQQGNVFSCSVMHEALHNHYTQKSLSLSPGGGGGSGGGGSGGGGSGGGGGSSWMEEVIKLCGRELVRAQIAICGMSTWS
B4: RELAX0073 (Fc fusion)
chain 1: DKTHTCPPCPAPEFEGGPSVFLFPPKPKDTLMISRTPEVTCVVVDVSHEDPEVKFNWYVDGVEVHNAKTKPREEQYNSTYRVVSVLTVLHQDWLNGKEYKCKVSNKALPASIEKTISKAKGQPREPQVYTLPPCREEMTKNQVSLWCLVKGFYPSDIAVEWESNGQPENNYKTTPPVLDSDGSFFLYSKLTVDKSRWQQGNVFSCSVMHEALHNHYTQKSLSLSPGGGGGSGGGGSGGGGSGGGGGSQLYSALANKCCHVGCTKRSLAYFC
chain 2: DKTHTCPPCPAPEFEGGPSVFLFPPKPKDTLMISRTPEVTCVVVDVSHEDPEVKFNWYVDGVEVHNAKTKPREEQYNSTYRVVSVLTVLHQDWLNGKEYKCKVSNKALPASIEKTISKAKGQPREPQVCTLPPSREEMTKNQVSLSCAVKGFYPSDIAVEWESNGQPENNYKTTPPVLDSDGSFFLVSKLTVDKSRWQQGNVFSCSVMHEALHNHYTQKSLSLSPGGGGGSGGGGSGGGGSGGGGGSSWMEEVIKLCGRELVRAQIAICGMSTWS
B5: RELAX0069 (Fc fusion)
chain 1: DKTHTCPPCPAPEFEGGPSVFLFPPKPKDTLMISRTPEVTCVVVDVSHEDPEVKFNWYVDGVEVHNAKTKPREEQYNSTYRVVSVLTVLHQDWLNGKEYKCKVSNKALPASIEKTISKAKGQPREPQVYTLPPCREEMTKNQVSLWCLVKGFYPSDIAVEWESNGQPENNYKTTPPVLDSDGSFFLYSKLTVDKSRWQQGNVFSCSVMHEALHNHYTQKSLSLSPGGGGGSGGGGSGGGGSGGGGGSQLYSALANKCCHVGCTKRSLAMFC
chain 2: DKTHTCPPCPAPEFEGGPSVFLFPPKPKDTLMISRTPEVTCVVVDVSHEDPEVKFNWYVDGVEVHNAKTKPREEQYNSTYRVVSVLTVLHQDWLNGKEYKCKVSNKALPASIEKTISKAKGQPREPQVCTLPPSREEMTKNQVSLSCAVKGFYPSDIAVEWESNGQPENNYKTTPPVLDSDGSFFLVSKLTVDKSRWQQGNVFSCSVMHEALHNHYTQKSLSLSPGGGGGSGGGGSGGGGSGGGGGSSWMEEVIKLCGRELVRAQIAICGMSTWS
B6: RELAX0074 (Fc fusion)
chain 1: DKTHTCPPCPAPEFEGGPSVFLFPPKPKDTLMISRTPEVTCVVVDVSHEDPEVKFNWYVDGVEVHNAKTKPREEQYNSTYRVVSVLTVLHQDWLNGKEYKCKVSNKALPASIEKTISKAKGQPREPQVYTLPPCREEMTKNQVSLWCLVKGFYPSDIAVEWESNGQPENNYKTTPPVLDSDGSFFLYSKLTVDKSRWQQGNVFSCSVMHEALHNHYTQKSLSLSPGGGGGSGGGGSGGGGSGGGGGSQLYSALANKCCHVGCTKRSLASFC
chain 2: DKTHTCPPCPAPEFEGGPSVFLFPPKPKDTLMISRTPEVTCVVVDVSHEDPEVKFNWYVDGVEVHNAKTKPREEQYNSTYRVVSVLTVLHQDWLNGKEYKCKVSNKALPASIEKTISKAKGQPREPQVCTLPPSREEMTKNQVSLSCAVKGFYPSDIAVEWESNGQPENNYKTTPPVLDSDGSFFLVSKLTVDKSRWQQGNVFSCSVMHEALHNHYTQKSLSLSPGGGGGSGGGGSGGGGSGGGGGSSWMEEVIKLCGRELVRAQIAICGMSTWS
B7: RELAX0071 (Fc fusion)
chain 1: DKTHTCPPCPAPEFEGGPSVFLFPPKPKDTLMISRTPEVTCVVVDVSHEDPEVKFNWYVDGVEVHNAKTKPREEQYNSTYRVVSVLTVLHQDWLNGKEYKCKVSNKALPASIEKTISKAKGQPREPQVYTLPPCREEMTKNQVSLWCLVKGFYPSDIAVEWESNGQPENNYKTTPPVLDSDGSFFLYSKLTVDKSRWQQGNVFSCSVMHEALHNHYTQKSLSLSPGGGGGSGGGGSGGGGSGGGGGSQLYSALANKCCHVGCTKRSLAQFC
chain 2: DKTHTCPPCPAPEFEGGPSVFLFPPKPKDTLMISRTPEVTCVVVDVSHEDPEVKFNWYVDGVEVHNAKTKPREEQYNSTYRVVSVLTVLHQDWLNGKEYKCKVSNKALPASIEKTISKAKGQPREPQVCTLPPSREEMTKNQVSLSCAVKGFYPSDIAVEWESNGQPENNYKTTPPVLDSDGSFFLVSKLTVDKSRWQQGNVFSCSVMHEALHNHYTQKSLSLSPGGGGGSGGGGSGGGGSGGGGGSSWMEEVIKLCGRELVRAQIAICGMSTWS

How the values were obtained:
Assay in all cases: cell-based or functional assay
human RXFP2 = human RXFP2 (human, UniProt Q8WXD0 1-754)
human RXFP1 = molecular target: T1, human RXFP1 (human, UniProt Q9HBX9 1-757)
T1 sequence (looked up): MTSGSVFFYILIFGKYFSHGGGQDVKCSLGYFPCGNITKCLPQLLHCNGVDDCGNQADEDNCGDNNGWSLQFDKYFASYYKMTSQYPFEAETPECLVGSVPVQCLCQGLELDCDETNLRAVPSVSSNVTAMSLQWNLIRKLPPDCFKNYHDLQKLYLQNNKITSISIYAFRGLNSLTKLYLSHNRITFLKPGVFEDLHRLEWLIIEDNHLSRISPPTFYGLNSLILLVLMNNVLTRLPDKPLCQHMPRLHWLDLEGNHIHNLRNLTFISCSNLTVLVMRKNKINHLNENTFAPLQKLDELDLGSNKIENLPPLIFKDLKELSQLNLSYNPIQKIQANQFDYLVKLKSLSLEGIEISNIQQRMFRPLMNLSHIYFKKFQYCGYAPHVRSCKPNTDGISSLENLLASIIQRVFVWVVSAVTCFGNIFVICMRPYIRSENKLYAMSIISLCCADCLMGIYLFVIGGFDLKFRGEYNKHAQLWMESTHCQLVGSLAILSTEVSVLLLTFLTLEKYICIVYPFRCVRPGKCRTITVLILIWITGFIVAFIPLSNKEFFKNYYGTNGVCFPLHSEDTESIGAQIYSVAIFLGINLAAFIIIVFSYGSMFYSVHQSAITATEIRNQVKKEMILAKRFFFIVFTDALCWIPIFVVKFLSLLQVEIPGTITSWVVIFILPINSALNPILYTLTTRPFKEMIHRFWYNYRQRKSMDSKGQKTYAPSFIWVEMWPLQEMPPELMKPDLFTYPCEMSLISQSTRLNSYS

mouse RXFP1 = molecular target: T2, mouse RXFP1 (mouse, UniProt Q6R6I7 1-758)
T2 sequence (looked up): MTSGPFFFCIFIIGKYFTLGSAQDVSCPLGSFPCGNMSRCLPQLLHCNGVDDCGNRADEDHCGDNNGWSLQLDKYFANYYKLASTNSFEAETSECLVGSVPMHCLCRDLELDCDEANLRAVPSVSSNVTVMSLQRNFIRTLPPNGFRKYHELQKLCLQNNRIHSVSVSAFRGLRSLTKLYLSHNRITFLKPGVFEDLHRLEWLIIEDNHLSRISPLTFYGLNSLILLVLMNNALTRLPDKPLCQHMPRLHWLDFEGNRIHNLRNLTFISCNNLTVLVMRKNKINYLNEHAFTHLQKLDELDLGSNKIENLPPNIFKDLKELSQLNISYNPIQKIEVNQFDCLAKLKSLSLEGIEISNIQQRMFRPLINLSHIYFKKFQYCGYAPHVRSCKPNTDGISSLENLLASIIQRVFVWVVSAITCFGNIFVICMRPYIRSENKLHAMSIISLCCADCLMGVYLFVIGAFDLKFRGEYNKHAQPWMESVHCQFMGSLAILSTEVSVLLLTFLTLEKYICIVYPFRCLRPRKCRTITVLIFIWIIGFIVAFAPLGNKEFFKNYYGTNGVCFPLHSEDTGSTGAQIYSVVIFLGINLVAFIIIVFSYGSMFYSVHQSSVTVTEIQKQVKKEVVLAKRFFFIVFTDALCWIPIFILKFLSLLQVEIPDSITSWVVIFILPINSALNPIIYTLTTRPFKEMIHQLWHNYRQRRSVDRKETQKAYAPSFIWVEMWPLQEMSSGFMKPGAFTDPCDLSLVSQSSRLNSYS

Sequence of human RXFP2 (Q8WXD0 whole entry): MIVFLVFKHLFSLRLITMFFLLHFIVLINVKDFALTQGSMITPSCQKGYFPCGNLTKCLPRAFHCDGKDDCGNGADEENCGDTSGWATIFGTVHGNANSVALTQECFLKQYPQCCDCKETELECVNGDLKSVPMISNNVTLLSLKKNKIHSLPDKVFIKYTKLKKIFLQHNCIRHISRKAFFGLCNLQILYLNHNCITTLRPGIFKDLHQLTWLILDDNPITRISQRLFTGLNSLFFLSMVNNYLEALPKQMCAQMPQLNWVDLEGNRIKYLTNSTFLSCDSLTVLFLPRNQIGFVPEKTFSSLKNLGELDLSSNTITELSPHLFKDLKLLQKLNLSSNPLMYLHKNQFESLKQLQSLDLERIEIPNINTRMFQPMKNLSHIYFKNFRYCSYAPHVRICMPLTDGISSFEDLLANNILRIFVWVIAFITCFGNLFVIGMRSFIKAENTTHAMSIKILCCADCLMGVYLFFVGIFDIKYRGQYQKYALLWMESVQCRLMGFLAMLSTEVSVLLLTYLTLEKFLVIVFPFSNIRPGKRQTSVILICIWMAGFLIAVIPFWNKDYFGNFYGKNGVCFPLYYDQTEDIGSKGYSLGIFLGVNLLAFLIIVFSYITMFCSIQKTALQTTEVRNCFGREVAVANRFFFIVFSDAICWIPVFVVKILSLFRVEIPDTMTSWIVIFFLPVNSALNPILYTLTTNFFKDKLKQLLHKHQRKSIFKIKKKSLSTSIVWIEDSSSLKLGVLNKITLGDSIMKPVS

| Binder | EC50 hRXFP2 (M), cAMP assay (human RXFP2) [M] | EC50 hRXFP1 (M), cAMP assay (human RXFP1) [M] | EC50 mRXFP1 (M), cAMP assay (mouse RXFP1) [M] |
| --- | --- | --- | --- |
| B1 | > 1.38e-07 | 1.96e-10 | 4.46e-11 |
| B2 | 1.07e-07 | 6.67e-11 | 5.02e-11 |
| B3 | > 2.3e-07 | 8.53e-11 | 4.03e-11 |
| B4 | 8.63e-08 | 5.7e-11 | 4.15e-11 |
| B5 | > 1.62e-07 | 5.76e-11 | 3.69e-11 |
| B6 | 9.21e-08 | 5.45e-11 | 4.53e-11 |
| B7 | 1.15e-07 | 6.87e-11 | 3.93e-11 |
